According to the supplement of paper PMC10065799, “High-throughput profiling of sequence recognition by tyrosine kinases and SH2 domains using bacterial peptide display” (eLife, 2023):

Legend:
[1] = test system: AncSZ; assay: phosphorylation enrichment, bacterial display (enrichment ratio); higher = better substrate or ligand; peptides without Tyr show the background
[2] = molecular target: EPHB1 (UniProt P54762); assay: as above
[3] = molecular target: EPHB2 (UniProt P29323); assay: as above
[4] = molecular target: FGFR1 (UniProt P11362); assay: as above
FGFR1, sequence (P11362 whole entry, looked up): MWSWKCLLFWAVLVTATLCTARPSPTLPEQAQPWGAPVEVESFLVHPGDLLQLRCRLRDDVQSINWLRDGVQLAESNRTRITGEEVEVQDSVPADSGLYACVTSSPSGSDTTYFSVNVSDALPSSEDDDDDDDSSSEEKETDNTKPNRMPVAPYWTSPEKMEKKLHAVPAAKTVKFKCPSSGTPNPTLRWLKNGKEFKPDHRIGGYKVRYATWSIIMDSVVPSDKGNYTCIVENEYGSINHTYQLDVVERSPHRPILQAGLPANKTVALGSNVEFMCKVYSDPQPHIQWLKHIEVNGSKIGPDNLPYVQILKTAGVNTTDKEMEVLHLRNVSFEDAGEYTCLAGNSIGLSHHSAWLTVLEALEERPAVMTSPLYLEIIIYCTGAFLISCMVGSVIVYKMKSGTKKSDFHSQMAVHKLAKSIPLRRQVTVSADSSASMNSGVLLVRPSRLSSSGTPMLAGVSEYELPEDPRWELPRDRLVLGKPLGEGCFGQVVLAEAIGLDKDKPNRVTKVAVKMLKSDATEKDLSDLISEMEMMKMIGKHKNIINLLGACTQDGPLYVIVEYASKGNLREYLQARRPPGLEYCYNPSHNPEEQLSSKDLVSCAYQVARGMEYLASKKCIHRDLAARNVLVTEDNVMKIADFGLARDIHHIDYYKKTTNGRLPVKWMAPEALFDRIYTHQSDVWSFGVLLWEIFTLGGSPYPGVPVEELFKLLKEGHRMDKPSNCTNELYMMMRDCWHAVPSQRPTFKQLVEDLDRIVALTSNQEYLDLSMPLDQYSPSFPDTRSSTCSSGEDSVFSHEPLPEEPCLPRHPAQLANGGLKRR

[5] = molecular target: FGFR3 (UniProt P22607); assay: as above
FGFR3, sequence (P22607 whole entry, looked up): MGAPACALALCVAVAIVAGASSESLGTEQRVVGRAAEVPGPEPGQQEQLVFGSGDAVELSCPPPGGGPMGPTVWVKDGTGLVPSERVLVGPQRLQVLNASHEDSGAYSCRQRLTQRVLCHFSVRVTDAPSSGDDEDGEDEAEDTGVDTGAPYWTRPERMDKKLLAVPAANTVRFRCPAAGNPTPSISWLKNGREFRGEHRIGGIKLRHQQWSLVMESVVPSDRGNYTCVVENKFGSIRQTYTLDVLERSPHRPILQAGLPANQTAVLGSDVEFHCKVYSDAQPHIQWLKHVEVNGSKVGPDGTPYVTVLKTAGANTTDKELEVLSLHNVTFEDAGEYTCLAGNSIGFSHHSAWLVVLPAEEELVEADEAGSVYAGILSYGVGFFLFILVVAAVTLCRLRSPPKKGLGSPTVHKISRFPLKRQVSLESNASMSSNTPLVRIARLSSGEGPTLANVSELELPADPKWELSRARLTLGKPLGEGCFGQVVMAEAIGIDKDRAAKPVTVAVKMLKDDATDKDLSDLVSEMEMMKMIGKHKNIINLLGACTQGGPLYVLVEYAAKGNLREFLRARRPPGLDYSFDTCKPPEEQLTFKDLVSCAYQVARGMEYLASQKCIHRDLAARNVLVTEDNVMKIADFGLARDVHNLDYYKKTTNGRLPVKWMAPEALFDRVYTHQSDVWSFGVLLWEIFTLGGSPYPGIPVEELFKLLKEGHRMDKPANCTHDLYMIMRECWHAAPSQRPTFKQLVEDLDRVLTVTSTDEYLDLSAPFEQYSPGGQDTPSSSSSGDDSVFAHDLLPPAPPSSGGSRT

[6] = test system: Fer (mouse); assay: as above
[7] = molecular target: Fes (UniProt P07332); assay: as above
[8] = molecular target: Fyn (UniProt P06241); assay: as above
[9] = molecular target: Hck (UniProt P08631); assay: as above
[10] = molecular target: Jak2 (UniProt O60674); assay: as above
Jak2, sequence (O60674 whole entry, looked up): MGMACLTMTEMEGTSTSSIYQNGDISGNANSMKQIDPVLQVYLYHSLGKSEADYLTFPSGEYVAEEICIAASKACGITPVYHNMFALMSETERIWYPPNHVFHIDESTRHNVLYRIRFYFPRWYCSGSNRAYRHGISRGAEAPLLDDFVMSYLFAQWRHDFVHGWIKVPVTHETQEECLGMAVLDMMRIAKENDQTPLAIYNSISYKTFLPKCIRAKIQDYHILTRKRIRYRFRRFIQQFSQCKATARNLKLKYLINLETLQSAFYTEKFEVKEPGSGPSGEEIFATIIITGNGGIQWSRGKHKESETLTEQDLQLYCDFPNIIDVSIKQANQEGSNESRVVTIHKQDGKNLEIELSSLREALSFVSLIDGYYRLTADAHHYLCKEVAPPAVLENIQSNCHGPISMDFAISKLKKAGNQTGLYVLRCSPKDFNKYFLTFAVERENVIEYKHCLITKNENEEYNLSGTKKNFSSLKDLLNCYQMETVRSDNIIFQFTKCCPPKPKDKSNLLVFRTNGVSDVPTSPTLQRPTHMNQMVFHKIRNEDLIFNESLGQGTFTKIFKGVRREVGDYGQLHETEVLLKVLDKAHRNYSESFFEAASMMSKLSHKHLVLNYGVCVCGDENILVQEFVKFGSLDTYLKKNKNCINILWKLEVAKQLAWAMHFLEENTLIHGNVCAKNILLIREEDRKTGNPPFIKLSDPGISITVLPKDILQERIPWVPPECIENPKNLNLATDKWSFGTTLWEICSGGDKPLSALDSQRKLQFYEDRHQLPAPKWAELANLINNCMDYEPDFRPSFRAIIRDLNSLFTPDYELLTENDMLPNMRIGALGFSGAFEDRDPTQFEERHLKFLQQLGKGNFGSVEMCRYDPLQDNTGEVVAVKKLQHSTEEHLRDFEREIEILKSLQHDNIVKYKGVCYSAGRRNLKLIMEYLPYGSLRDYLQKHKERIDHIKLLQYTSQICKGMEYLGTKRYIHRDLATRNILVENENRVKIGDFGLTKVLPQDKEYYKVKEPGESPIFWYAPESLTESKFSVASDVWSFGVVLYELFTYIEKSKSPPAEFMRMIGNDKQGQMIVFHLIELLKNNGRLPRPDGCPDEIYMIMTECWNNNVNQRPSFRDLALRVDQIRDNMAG

[11] = molecular target: MERTK (UniProt Q12866); assay: as above
[12] = test system: c-Abl (mouse); assay: as above
[13] = test system: c-Src; assay: as above
[14] = molecular target: Grb2 SH2 (UniProt P62993); assay: SH2 binding enrichment of the phosphorylated peptide, bacterial display (enrichment ratio); higher = better substrate or ligand; peptides without Tyr show the background
[15] = molecular target: SHP2-C SH2; assay: as above
[16] = molecular target: c-Src SH2; assay: as above
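Wherever SH2 binding enrichment of the phosphorylated peptide, bacterial display is given: peptide library displayed on the E. coli surface as eCPX fusions, selected cells deep-sequenced, score is each peptide's frequency after selection divided by its frequency in the input.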
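Wherever phosphorylation enrichment, bacterial display is given: 11-residue human phosphosite peptides and single-mutation variants displayed on the E. coli surface, counted by deep sequencing, each peptide's frequency after selection divided by its frequency in the unselected input library; frequency after pTyr selection over input frequency; kinase dosed for 20-30% of maximal phosphorylation in three min.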

EPHB1, sequence (P54762 whole entry, looked up): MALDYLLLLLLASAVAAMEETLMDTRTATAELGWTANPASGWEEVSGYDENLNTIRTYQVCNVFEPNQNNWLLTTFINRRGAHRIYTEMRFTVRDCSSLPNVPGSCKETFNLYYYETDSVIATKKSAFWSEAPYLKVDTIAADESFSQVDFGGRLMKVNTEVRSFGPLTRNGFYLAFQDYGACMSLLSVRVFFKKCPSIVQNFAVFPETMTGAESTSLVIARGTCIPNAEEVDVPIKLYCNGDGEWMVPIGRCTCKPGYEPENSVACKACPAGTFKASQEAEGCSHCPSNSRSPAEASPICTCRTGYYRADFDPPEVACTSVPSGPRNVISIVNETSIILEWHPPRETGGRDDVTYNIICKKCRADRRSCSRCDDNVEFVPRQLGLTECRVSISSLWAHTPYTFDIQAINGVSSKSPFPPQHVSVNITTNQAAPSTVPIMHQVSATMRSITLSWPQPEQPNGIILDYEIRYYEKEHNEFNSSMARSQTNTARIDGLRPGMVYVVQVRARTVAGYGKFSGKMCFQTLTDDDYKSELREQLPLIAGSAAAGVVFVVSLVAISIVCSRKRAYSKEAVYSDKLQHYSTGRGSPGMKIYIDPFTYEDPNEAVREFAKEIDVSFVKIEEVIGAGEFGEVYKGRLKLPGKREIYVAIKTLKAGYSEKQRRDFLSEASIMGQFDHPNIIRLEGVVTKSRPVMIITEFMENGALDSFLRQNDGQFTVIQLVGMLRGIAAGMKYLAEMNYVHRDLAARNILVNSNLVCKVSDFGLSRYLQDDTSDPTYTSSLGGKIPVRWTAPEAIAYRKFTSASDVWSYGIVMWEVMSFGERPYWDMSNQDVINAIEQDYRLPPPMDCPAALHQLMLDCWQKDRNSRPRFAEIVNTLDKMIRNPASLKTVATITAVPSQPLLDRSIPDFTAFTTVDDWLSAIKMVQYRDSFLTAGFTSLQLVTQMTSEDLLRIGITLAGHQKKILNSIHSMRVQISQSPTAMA
EPHB2, sequence (P29323 whole entry, looked up): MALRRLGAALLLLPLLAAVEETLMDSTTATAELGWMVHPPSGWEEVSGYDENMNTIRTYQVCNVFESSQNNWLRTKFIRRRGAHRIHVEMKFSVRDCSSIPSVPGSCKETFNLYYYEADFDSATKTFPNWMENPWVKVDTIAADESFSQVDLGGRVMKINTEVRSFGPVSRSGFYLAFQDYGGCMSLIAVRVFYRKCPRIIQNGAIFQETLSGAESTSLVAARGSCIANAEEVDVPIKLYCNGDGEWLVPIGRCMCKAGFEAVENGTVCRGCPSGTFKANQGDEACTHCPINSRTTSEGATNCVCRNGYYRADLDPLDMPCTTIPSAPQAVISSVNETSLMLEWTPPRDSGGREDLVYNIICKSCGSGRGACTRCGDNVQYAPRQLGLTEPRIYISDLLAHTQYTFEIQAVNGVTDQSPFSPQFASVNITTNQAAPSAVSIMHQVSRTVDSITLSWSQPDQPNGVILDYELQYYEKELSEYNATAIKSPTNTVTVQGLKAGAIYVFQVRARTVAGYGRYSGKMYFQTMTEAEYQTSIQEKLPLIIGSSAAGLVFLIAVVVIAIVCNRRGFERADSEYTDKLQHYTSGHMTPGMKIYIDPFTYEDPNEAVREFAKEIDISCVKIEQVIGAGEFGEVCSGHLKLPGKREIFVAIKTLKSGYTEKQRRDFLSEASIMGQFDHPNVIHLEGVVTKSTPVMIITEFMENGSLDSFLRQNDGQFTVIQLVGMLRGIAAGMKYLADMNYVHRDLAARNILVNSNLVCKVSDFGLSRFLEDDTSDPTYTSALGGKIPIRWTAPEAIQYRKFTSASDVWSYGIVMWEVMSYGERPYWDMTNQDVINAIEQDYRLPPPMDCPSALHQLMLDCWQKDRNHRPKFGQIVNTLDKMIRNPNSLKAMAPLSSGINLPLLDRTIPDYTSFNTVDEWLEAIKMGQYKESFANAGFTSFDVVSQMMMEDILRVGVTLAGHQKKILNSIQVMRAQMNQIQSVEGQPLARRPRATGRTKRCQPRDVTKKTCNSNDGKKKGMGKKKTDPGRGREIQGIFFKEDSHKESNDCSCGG

| Sequence | SH2 binding enrichment [14] | SH2 binding enrichment [15] | SH2 binding enrichment [16] | phosphorylation enrichment [1] | phosphorylation enrichment [2] | phosphorylation enrichment [3] | phosphorylation enrichment [4] | phosphorylation enrichment [5] | phosphorylation enrichment [6] | phosphorylation enrichment [7] | phosphorylation enrichment [8] | phosphorylation enrichment [9] | phosphorylation enrichment [10] | phosphorylation enrichment [11] | phosphorylation enrichment [12] | phosphorylation enrichment [13] |
| --- | --- | --- | --- | --- | --- | --- | --- | --- | --- | --- | --- | --- | --- | --- | --- | --- |
| FIATQYSLRPR [LBR_Y166_YF] | 1.01 | 0.973 | 0.477 | 0.635 | 0.39 | 0.518 | 0.532 | 0.471 | 0.399 | 0.671 | 0.458 | 0.454 | 0.551 | 0.506 | 0.525 | 0.464 |
| RALRHYFKLNI [ETV6_Y401_YF] | 2.81 | 2.6 | 1.66 | 0.725 | 0.342 | 0.358 | 0.485 | 0.55 | 0.369 | 0.874 | 0.373 | 0.377 | 0.798 | 0.4 | 0.594 | 0.394 |
| KLSFSYGQALQ [ALDOB_Y302_R304Q] | 0.861 | 0.703 | 0.475 | 1 | 0.649 | 0.564 | 0.503 | 0.72 | 0.529 | 1.1 | 0.422 | 0.383 | 1.03 | 0.437 | 0.686 | 0.41 |
| LDMSQYFRLFN [CPT2_Y217] | 1.23 | 2.02 | 0.669 | 1.1 | 0.539 | 0.531 | 2.15 | 1.62 | 0.613 | 1.55 | 0.959 | 0.885 | 4.15 | 0.755 | 0.92 | 0.601 |
| DAHFTYSRYPW [LY75_Y888_D884A] | 0.817 | 0.761 | 0.51 | 1.16 | 2.76 | 5.6 | 0.716 | 0.641 | 0.5 | 0.885 | 2.4 | 3.76 | 1.02 | 1.27 | 1.19 | 3.24 |
| LIFVSYDDWDY [GRIN2A_Y281_S278F] | 1.38 | 1.38 | 1.16 | 2.07 | 1.8 | 2.52 | 0.95 | 1.77 | 4.89 | 2.75 | 0.966 | 0.774 | 2.22 | 0.618 | 1.49 | 0.914 |
| SCRENYSFSEE [LEMD3_Y258_D260Y_YF] | 1.05 | 0.716 | 0.807 | 1.1 | 0.709 | 0.725 | 0.452 | 0.75 | 0.53 | 1.08 | 0.501 | 0.509 | 0.988 | 0.38 | 0.791 | 0.588 |
| QMVGMYASSSM [AVPR2_Y124_Y128S] | 0.869 | 0.756 | 0.685 | 0.647 | 0.73 | 0.403 | 0.477 | 0.435 | 0.472 | 0.645 | 0.438 | 0.766 | 0.635 | 0.504 | 0.807 | 0.567 |
| ACQGKYTPSGQ [ALDOA_Y343] | 0.843 | 0.75 | 0.551 | 0.598 | 0.414 | 0.402 | 0.406 | 0.734 | 0.531 | 0.742 | 0.479 | 0.46 | 0.851 | 0.378 | 0.693 | 0.463 |
| HNVPICEGYAL [ACTC1_Y168_Y168C] | 0.833 | 0.779 | 0.587 | 0.86 | 0.801 | 0.513 | 0.732 | 0.841 | 0.499 | 1 | 0.434 | 0.916 | 0.895 | 0.505 | 0.652 | 0.668 |
| DHLASYLDKVR [KRT10_Y160_R156H] | 0.776 | 0.714 | 0.44 | 0.585 | 0.369 | 0.477 | 0.46 | 0.469 | 0.363 | 0.677 | 0.406 | 0.439 | 0.639 | 0.453 | 0.473 | 0.457 |
| LSSETYVKSYT [F5_Y2149_M2148T] | 0.936 | 0.818 | 0.555 | 0.946 | 0.553 | 0.74 | 0.606 | 0.582 | 0.738 | 0.902 | 0.726 | 0.529 | 1.37 | 0.513 | 0.908 | 0.668 |
| SEDSEYFRAFE [CASQ2_Y178_K180R_YF] | 0.874 | 0.559 | 0.439 | 1.99 | 0.633 | 0.591 | 0.586 | 0.854 | 0.511 | 1.48 | 0.545 | 0.524 | 1.26 | 0.476 | 1.31 | 0.693 |
| FSQQTYYRVSN [ABCD1_Y180] | 0.86 | 0.672 | 0.82 | 0.831 | 1.83 | 1.06 | 6.2 | 4.51 | 0.392 | 0.756 | 1.18 | 3.2 | 6.78 | 2.85 | 0.72 | 3.18 |
| VVKLAYNENDN [CAMKK2_Y183] | 0.904 | 0.622 | 0.408 | 0.856 | 0.449 | 0.55 | 0.518 | 0.672 | 0.484 | 0.897 | 0.478 | 0.527 | 0.624 | 0.374 | 0.592 | 0.404 |
| SLFNGYVFSGV [NEIL3_Y71_YF] | 0.71 | 0.719 | 0.967 | 0.779 | 0.514 | 0.567 | 0.562 | 0.584 | 0.494 | 0.77 | 0.451 | 0.555 | 0.908 | 0.472 | 0.624 | 0.418 |
| PVLSLYASGRT [ACTA1_Y145_A140P] | 0.841 | 0.926 | 0.484 | 1.14 | 0.637 | 0.548 | 0.328 | 0.703 | 0.539 | 1.19 | 0.616 | 0.768 | 1.39 | 0.752 | 1.31 | 0.573 |
| SFPSFYTSHVQ [NEFL_Y443_YF] | 0.889 | 1.1 | 0.47 | 0.874 | 0.677 | 0.584 | 0.5 | 0.609 | 0.509 | 0.857 | 0.563 | 0.548 | 0.657 | 1.23 | 0.498 | 0.509 |
| VMAALYGRLFE [BTD_Y536_T532M_YF] | 1.59 | 1.44 | 1.18 | 0.981 | 0.597 | 0.743 | 0.457 | 0.752 | 0.612 | 1.18 | 6.68 | 5.53 | 1.03 | 1.34 | 0.967 | 6.1 |
| RLLVFYPWTQR [HBB_Y36_V35F] | 2.4 | 2.1 | 1.8 | 2.05 | 0.794 | 0.938 | 0.877 | 0.891 | 0.65 | 1.47 | 0.616 | 0.557 | 1.73 | 0.512 | 1.02 | 0.509 |

The next lines start with results.

| SH2 binding enrichment [14] | SH2 binding enrichment [15] | SH2 binding enrichment [16] | Sequence | phosphorylation enrichment [1] | phosphorylation enrichment [2] | phosphorylation enrichment [3] | phosphorylation enrichment [4] | phosphorylation enrichment [5] | phosphorylation enrichment [6] | phosphorylation enrichment [7] | phosphorylation enrichment [8] | phosphorylation enrichment [9] | phosphorylation enrichment [10] | phosphorylation enrichment [11] | phosphorylation enrichment [12] | phosphorylation enrichment [13] |
| --- | --- | --- | --- | --- | --- | --- | --- | --- | --- | --- | --- | --- | --- | --- | --- | --- |
| 1.17 | 1.88 | 1.03 | SWSTSYSGYRY [NKAPL_Y91] | 0.825 | 0.596 | 0.619 | 0.707 | 0.656 | 0.591 | 0.925 | 0.706 | 0.701 | 0.741 | 0.461 | 0.652 | 1.7 |
| 0.968 | 0.544 | 0.614 | ADFPDYKFRPR [SOX11_Y116_YF] | 1.07 | 0.378 | 0.422 | 0.455 | 0.58 | 0.369 | 0.697 | 0.472 | 0.501 | 0.728 | 0.413 | 0.403 | 0.357 |
| 1 | 0.762 | 0.753 | RAIELCNDKEK [OTULIN_Y244_Y244C] | 0.852 | 0.406 | 0.76 | 0.354 | 0.425 | 0.471 | 1.38 | 0.509 | 0.381 | 0.752 | 0.395 | 0.682 | 0.481 |
| 0.962 | 0.911 | 0.644 | NSRYTYKLEVK [USH2A_Y3747] | 1.12 | 0.618 | 0.689 | 0.427 | 0.687 | 0.505 | 1.29 | 0.437 | 0.478 | 0.982 | 0.396 | 0.795 | 0.42 |
| 0.802 | 0.516 | 0.582 | ELQDDYEDTME [SLC4A1_Y8_M11T] | 1.47 | 0.942 | 0.836 | 0.649 | 0.972 | 0.805 | 1.39 | 0.77 | 0.649 | 1.47 | 0.526 | 1 | 0.603 |
| 0.755 | 0.595 | 0.419 | LNCDRYSAGLL [PDE6A_Y275_V277A] | 0.919 | 0.487 | 0.481 | 0.396 | 0.612 | 0.432 | 0.834 | 0.512 | 0.39 | 0.87 | 0.378 | 0.673 | 0.448 |
| 1.07 | 0.596 | 0.526 | SGDINYGQFAQ [PLCG1_Y210_T209N] | 0.727 | 0.478 | 0.63 | 0.289 | 0.548 | 0.423 | 0.683 | 0.554 | 0.65 | 0.631 | 0.387 | 0.874 | 0.647 |
| 0.953 | 0.968 | 0.609 | GFCSWYRGWAP [TIMP3_Y195_YF] | 1.27 | 0.763 | 0.597 | 0.514 | 0.813 | 0.593 | 1.27 | 0.472 | 0.497 | 1.2 | 0.498 | 0.912 | 0.773 |
| 0.956 | 0.594 | 0.554 | DTQNSYRCATS [TSC1_Y304_G305R] | 0.771 | 0.389 | 0.501 | 0.565 | 0.486 | 0.392 | 0.726 | 0.538 | 0.42 | 0.612 | 0.466 | 0.593 | 0.449 |
| 1.11 | 1.31 | 1.09 | VLICAYLLHRG [PTEN_Y138_M134L] | 1.06 | 0.62 | 0.661 | 0.44 | 0.809 | 0.856 | 1.33 | 0.515 | 0.608 | 0.929 | 0.412 | 0.833 | 0.516 |
| 0.673 | 1.47 | 1.17 | PMQLPYDSTWE [PDGFRB_Y589] | 0.975 | 0.533 | 0.399 | 0.438 | 0.646 | 0.575 | 1.69 | 0.561 | 0.554 | 1.24 | 0.573 | 1.12 | 1.1 |
| 1.02 | 0.49 | 0.518 | GRDQPYSGTGD [TYRO3_Y828_A831T] | 0.667 | 0.385 | 0.43 | 0.49 | 0.52 | 0.526 | 0.757 | 0.549 | 0.481 | 0.713 | 0.492 | 0.673 | 0.441 |
| 1.06 | 0.966 | 10 | SKHHLYSDLQT [PTCHD1_Y84_R82H] | 0.487 | 0.462 | 0.389 | 0.55 | 0.589 | 1.91 | 0.786 | 0.505 | 0.985 | 0.887 | 2.23 | 0.51 | 0.634 |
